Assay results as given in article PMC3744425.

Each substance was assayed against Ubiquitin-7-amino-4-methylcoumarin (human) (UniProt P0CG48).
For “Turnip yellow mosaic virus (TYMV) PRO domain, N-terminally 6-histidine tagged, wild type (enzyme)”, the Kapp (apparent kcat/Km) of Ub-AMC hydrolysis, far from saturating conditions was 2650 M⁻¹ s⁻¹. Substance “TYMV PRO L732A/L765A mutant, N-terminally 6-histidine tagged (enzyme)” has a Kapp (apparent kcat/Km) of Ub-AMC hydrolysis, far from saturating conditions of 2510 M⁻¹ s⁻¹. In the case of “TYMV PRO E759G/N760G mutant, N-terminally 6-histidine tagged (enzyme)”, the Kapp (apparent kcat/Km) of Ub-AMC hydrolysis, far from saturating conditions was 2060 M⁻¹ s⁻¹. “TYMV PRO I847A mutant, N-terminally 6-histidine tagged (enzyme)” gave a Kapp (apparent kcat/Km) of Ub-AMC hydrolysis, far from saturating conditions of 215 M⁻¹ s⁻¹. With “TYMV PRO I847D mutant, N-terminally 6-histidine tagged (enzyme)” the Kapp (apparent kcat/Km) of Ub-AMC hydrolysis, far from saturating conditions was 14 M⁻¹ s⁻¹.
